In article PMC1784095:

Tests used:
[1] = target: T1, ArgR (Escherichia coli K-12 W3110) (UniProt P0A6D0); experiment: EMSA; details: Crp EMSA: 10 mM Tris-HCl pH 8.0, 50 mM KCl, 1 mM EDTA, 0.1 mM DTT, 50 ug/ml BSA, 10 ug/ml poly(dI-dC), 12.5% glycerol, cAMP (20 uM in Results, 20 mM in Methods …)
T1 sequence: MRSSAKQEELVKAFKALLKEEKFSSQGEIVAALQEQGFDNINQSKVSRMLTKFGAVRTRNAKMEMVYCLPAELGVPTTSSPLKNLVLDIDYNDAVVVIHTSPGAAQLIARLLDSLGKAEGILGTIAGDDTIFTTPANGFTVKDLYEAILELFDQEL

[2] = system: Crp (Escherichia coli K-12 W3110); experiment: EMSA; details: 20 uM cAMP; apparent Kd; Crp EMSA: 10 mM Tris-HCl pH 8.0, 50 mM KCl, 1 mM EDTA, 0.1 mM DTT, 50 ug/ml BSA, 10 ug/ml poly(dI-dC), 12.5% glycerol, cAMP (20 uM in Results, 20 mM in Methods …)

Row | Substance | Kd ([1]; 5 mM L-arginine, apparent Kd, Hill 2.0) [nM] | Kd [2] [nM] | Kd [1] [nM]
1 | PgltB -406 to +246 | 1.8 | 35 | –
2 | AATTCGGCGATGACCTGGATCAATCGTCCCGGCCTGCTTTTATCAACTGCATAATCAATCAAAATTACCGAAATTTCATGCATAATCACATAAATCACTTTTGCTTATCTTGTGTCAGATTTTTTTATCTCCTGATGGATTTTAGGCAAAAACAGTAGCATGAAACGTCATTACCAATTAAGGCAGTATAAAATGCTGGTTTTGTCGTCAGTTCAAGGCAGGATAAGGGTTAACACACCTTTATGACAGTCAGGAATTGACTGTTTCTCTAACGACTTC (double strand) [PgltB -406 to -128] | – | – | 1.7
